From the supplement of paper PMC12042874
± gives the uncertainty stated by the source.

Assay: amyloid nucleation score (Sup35N fusion, yeast selection) (log enrichment); library NNK3; higher = more nucleation; inactive = no reads after selection
In short: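 The nucleation score is a DiMSum log enrichment of output over input reads, centred on the mode score of non-aggregating sequences. Sequences under 100 input reads were excluded, and reads came from Illumina sequencing of plasmid inserts. Psi-negative yeast expressing Sup35N fused to peptides of 20 random codons were induced with 100 μM copper sulfate for 24 hours and grown 7 days at 30°C on medium lacking adenine and uracil. Random libraries had three technical output replicates.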

Substance	amyloid nucleation score
LSCDGNRGTVFVIRIFSGDV	2.62 ± 0.078
KWRDIIYCIYSIMIDSCTSR	inactive
WTLRFLVKGSRCQFVAP	inactive
RFFSFFIT	2.44 ± 0.055
LIPIW	inactive
ASCSVVEKISFTDPGIQWIR	-0.032 ± 1.1
IANCRIS	1.34 ± 0.094
TGSMFRSRPRSEG	inactive
NGYTNASS	inactive
SRFLKCF	inactive
LYVFCTSY	inactive
SIRVINKRHCCSSGDWREDR	1.78 ± 0.081
TFLMAYSWSCRQRNCKGFIY	inactive
FIGFSAWWNGMDNVRVLASS	-0.269 ± 0.73
FLYSVL	inactive
HAFRVSLSLVVVCCVIWDTN	inactive
QRCCP	inactive
QIQGAGHGM	0.534 ± 0.21
ATPKPKGHY	inactive
LGHVCILVQGGSKVRPTYGS	inactive
FSASVVSTGINTSY	inactive
EGHLIHEYTQTRFVLEVSVK	inactive
IPVSHVAMNGECGWVSDIKH	inactive

Substance	amyloid nucleation score
LSFAVKCFRIGDMNAFNTFI	inactive
GSTYTVGSAGSSMTTRDLDM	inactive
NFIQVMAIIGLFAVHRGCVT	0.758 ± 0.14
ASYLCVFCDRAFQCGPYRYI	2.22 ± 0.092
QMRYLFACFYT	inactive
PNCGFVCMKMCATTDLFVCV	inactive
PHRGACMARTLSEVFCRAGS	inactive
SVSASRSEVTRE	-0.146 ± 0.64
HLWTFEITSTGYL	inactive
TNTFYDHTNFMIVGLVPVRY	inactive
IFQRKRRTYLS	inactive
DFWKL	inactive
SVIARVVRPMLRCKVSSMSM	inactive
LVWWDGSEWTTWGVADIDWT	inactive
SISAALWAFL	inactive
KDVSMLSTVTRTPRMRRVST	inactive
NEVVQSLTRSIFRRYSKSAM	0.129 ± 0.98
SLYRKGRHFGGCSCSIVRFR	0.319 ± 0.78
SNLRFFVAFLQGRSLN	0.959 ± 0.23
SSMWCMDRSLYTNYEYQRVL	0.054 ± 0.36
HHAVYIVVRMADKACDWGCC	1.84 ± 0.078
PLDQCPKVPSLVASLQSESR	inactive
CSGAIHYPYRLMRERNFTGR	inactive

Substance	amyloid nucleation score
VLYSYRYSYSVGLCTEMHRF	inactive
SCWLGVVETRHNLYDAQNGS	inactive
VVLFYDSCSG	inactive
FNWFCLFLWMRNRSKPFWTM	inactive
LAEVMTVLLFDYVNHWGSAI	inactive
AVIVVINNQTH	2.78 ± 0.077
ESFLFFMFIFASCTT	0.536 ± 0.33
AVFSKGISCGLH	-0.434 ± 1.1
HVTQLNGVAYSCEI	inactive
LCNFKDSADNWVSVGGNVGE	inactive
VKKSYWAERGFFGA	inactive
VGTGVM	inactive
LMDPNGLVQGLFYMELLT	inactive
HFSLGLVMYLCSLGNVRP	1.47 ± 0.11
SESTFYMGRLFKEGPRKHVT	inactive
HSIIVEWKC	inactive
KFSNSASFSGFYFNNYLSSQ	0.95 ± 0.096
CELGDSGVIDDKIICVCYYL	inactive
DSCKIYGG	inactive
VTSVHTALFSLQNDWNNKGD	inactive
KACWLYLIFIFFGWVYSKTI	0.745 ± 0.25
